Earlier results on 1 substance are cited in PMC2686754.

The target in data set [1] is TGF-β1 (Homo sapiens) (UniProt P01137).
Data set [2] deals with BMP4 (Homo sapiens) (UniProt P12644).
Chain of UniProt P12644 (P12644 293-408): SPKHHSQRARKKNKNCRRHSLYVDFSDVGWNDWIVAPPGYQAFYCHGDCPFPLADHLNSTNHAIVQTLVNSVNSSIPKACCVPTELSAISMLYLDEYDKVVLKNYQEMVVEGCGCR

Chain of UniProt P01137 (P01137 279-390): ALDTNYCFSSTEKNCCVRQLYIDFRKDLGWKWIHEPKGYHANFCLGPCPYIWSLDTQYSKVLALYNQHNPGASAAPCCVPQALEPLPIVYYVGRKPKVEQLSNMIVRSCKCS

The term Kd denotes the constant that tells how readily two partners part at equilibrium. Turning to CCN2 (from UniProt P29279), the dissociation constant (Kd) in data set [1] was 0.03 µM; in data set [2], 0.005 µM.
